± gives the uncertainty stated by the source.
B1: Arginine-glutamic acid dipeptide repeats protein, residues 502 to 543; numbered along this chain, Q9P2R6 (parent)
chain: LKGYACRHCFTTTSKDWHHGGRENILLCTDCRIHFKKYGELP

Variants of: B1
Test: abundance fitness (aPCA) (normalised: wild type 0, dead -1); higher = more abundant; growth selection in yeast, the domain comes from the species named
Conditions: Homo sapiens

Variant	abundance fitness
LKGYACRHCFTTTSKDWHHGGRENILLCTDCRIHFVKYGELP [K36V]	-0.038 ± 0.048
LKGYACRHCFTTTSKDWHHGGRENILLCTDCRIHFSKYGELP [K36S]	0.008 ± 0.041
LKGYACRHCFTTTSKDWHHGGRENILLCTDCRIHFTKYGELP [K36T]	0.009 ± 0.055
LKGYACRHCFTTTSKDWHHGGRENILLCTDCRIHFMKYGELP [K36M]	-0.095 ± 0.051
LKGYACRHCFTTTSKDWHHGGRENILLCTDCRIHFCKYGELP [K36C]	-0.134 ± 0.064
LKGYACRHCFTTTSKDWHHGGRENILLCTDCRIHFRKYGELP [K36R]	-0.029 ± 0.034
LKGYACRHCFTTTSKDWHHGGRENILLCTDCRIHFQKYGELP [K36Q]	0.123 ± 0.075
LKGYACRHCFTTTSKDWHHGGRENILLCTDCRIHFGKYGELP [K36G]	0.079 ± 0.033
LKGYACRHCFTTTSKDWHHGGRENILLCTDCRIHFEKYGELP [K36E]	-0.012 ± 0.039
LKGYACRHCFTTTSKDWHHGGRENILLCTDCRIHFPKYGELP [K36P]	-0.363 ± 0.054
LKGYACRHCFTTTSKDWHHGGRENILLCTDCRIHFLKYGELP [K36L]	-0.068 ± 0.042
LKGYACRHCFTTTSKDWHHGGRENILLCTDCRIHFNKYGELP [K36N]	0.248 ± 0.092
LKGYACRHCFTTTSKDWHHGGRENILLCTDCRIHFFKYGELP [K36F]	0.294 ± 0.13
LKGYACRHCFTTTSKDWHHGGRENILLCTDCRIHFAKYGELP [K36A]	0.081 ± 0.035
LKGYACRHCFTTTSKDWHHGGRENILLCTDCRIHFWKYGELP [K36W]	-0.147 ± 0.052
LKGYACRHCFTTTSKDWHHGGRENILLCTDCRIHFKAYGELP [K37A]	-0.034 ± 0.037
LKGYACRHCFTTTSKDWHHGGRENILLCTDCRMHFKKYGELP [I33M]	-0.007 ± 0.044
LKGYACRHCFTTTSKDWHHGGRENILLCTDCRSHFKKYGELP [I33S]	0.017 ± 0.039
LKGYACRHCFTTTSKDWHHGGRENILLCTDCRYHFKKYGELP [I33Y]	-0.01 ± 0.063
LKGYACRHCFTTTSKDWHHGGRENILLCTDCRRHFKKYGELP [I33R]	0.026 ± 0.031

Variant	abundance fitness
LKGYACRHCFTTTSKDWHHGGRENILLCTDCRWHFKKYGELP [I33W]	-0.059 ± 0.036
LKGYACRHCFTTTSKDWHHGGRENILLCTDCRLHFKKYGELP [I33L]	0.074 ± 0.043
LKGYACRHCFTTTSKDWHHGGRENILLCTDCRVHFKKYGELP [I33V]	0.068 ± 0.037
LKGYACRHCFTTTSKDWHHGGRENILLCTDCRQHFKKYGELP [I33Q]	0.074 ± 0.038
LKGYACRHCFTTTSKDWHHGGRENILLCTDCRHHFKKYGELP [I33H]	0.017 ± 0.085
LKGYACRHCFTTTSKDWHHGGRENILLCTDCRKHFKKYGELP [I33K]	-0.011 ± 0.04
LKGYACRHCFTTTSKDWHHGGRENILLCTDCRTHFKKYGELP [I33T]	0.042 ± 0.053
LKGYACRHCFTTTSKDWHHGGRENILLCTDCRPHFKKYGELP [I33P]	-0.465 ± 0.057
LKGYACRHCFTTTSKDWHHGGRENILLCTDCRGHFKKYGELP [I33G]	0.104 ± 0.036
LKGYACRHCFTTTSKDWHHGGRENILLCTDCRIHNKKYGELP [F35N]	-0.245 ± 0.14
LKGYACRHCFTTTSKDWHHGGRENILLCTDCRIHLKKYGELP [F35L]	-0.057 ± 0.034
LKGYACRHCFTTTSKDWHHGGRENILLCTDCRIHKKKYGELP [F35K]	-0.091 ± 0.089
LKGYACRHCFTTTSKDWHHGGRENILLCTDCRIHAKKYGELP [F35A]	-0.089 ± 0.039
LKGYACRHCFTTTSKDWHHGGRENILLCTDCRIHCKKYGELP [F35C]	-0.191 ± 0.06
LKGYACRHCFTTTSKDWHHGGRENILLCTDCRIHDKKYGELP [F35D]	-0.112 ± 0.098
LKGYACRHCFTTTSKDWHHGGRENILLCTDCRIHWKKYGELP [F35W]	0.001 ± 0.037
LKGYACRHCFTTTSKDWHHGGRENILLCTDCRIHQKKYGELP [F35Q]	-0.058 ± 0.044
LKGYACRHCFTTTSKDWHHGGRENILLCTDCRIHGKKYGELP [F35G]	-0.287 ± 0.031
LKGYACRHCFTTTSKDWHHGGRENILLCTDCRIHMKKYGELP [F35M]	-0.163 ± 0.067
LKGYACRHCFTTTSKDWHHGGRENILLCTDCRIHPKKYGELP [F35P]	-0.422 ± 0.064

Variant	abundance fitness
LKGYACRHCFTTTSKDWHHGGRENILLCTDCRIHHKKYGELP [F35H]	-0.015 ± 0.068
LKGYACRHCFTTTSKDWHHGGRENILLCTDCRIHSKKYGELP [F35S]	-0.187 ± 0.038
LKGYACRHCFTTTSKDWHHGGRENILLCTDCRIHRKKYGELP [F35R]	-0.236 ± 0.034
LKGYACRHCFTTTSKDWHHGGRENILLCTDCRIEFKKYGELP [H34E]	-0.242 ± 0.037
LKGYACRHCFTTTSKDWHHGGRENILLCTDCRIMFKKYGELP [H34M]	-0.204 ± 0.061
LKGYACRHCFTTTSKDWHHGGRENILLCTDCRISFKKYGELP [H34S]	-0.04 ± 0.041
LKGYACRHCFTTTSKDWHHGGRENILLCTDCRIDFKKYGELP [H34D]	-0.32 ± 0.1
LKGYACRHCFTTTSKDWHHGGRENILLCTDCRIIFKKYGELP [H34I]	-0.472 ± 0.16
LKGYACRHCFTTTSKDWHHGGRENILLCTDCRIAFKKYGELP [H34A]	-0.033 ± 0.033
LKGYACRHCFTTTSKDWHHGGRENILLCTDCRIRFKKYGELP [H34R]	-0.258 ± 0.032
LKGYACRHCFTTTSKDWHHGGRENILLCTDCRIQFKKYGELP [H34Q]	-0.098 ± 0.043
LKGYACRHCFTTTSKDWHHGGRENILLCTDCRIPFKKYGELP [H34P]	-0.805 ± 0.21
LKGYACRHCFTTTSKDWHHGGRENILLCTDCRIVFKKYGELP [H34V]	-0.3 ± 0.038
LKGYACRHCFTTTSKDWHHGGRENILLCTDCRILFKKYGELP [H34L]	-0.282 ± 0.045
LKGYACRHCFTTTSKDWHHGGRENILLCTDCRITFKKYGELP [H34T]	-0.204 ± 0.047
LKGYACRHCFTTTSKDWHHGGRENILLCTDCRIFFKKYGELP [H34F]	-0.218 ± 0.094
LKGYACRHCFTTTSKDWHHGGRENILLCTDCRIYFKKYGELP [H34Y]	-0.102 ± 0.088
LKGYACRHCFTTTSKDWHHGGRENILLCTDCRICFKKYGELP [H34C]	0.05 ± 0.069
LKGYACRHCFTTTSKDWHHGGRENILLCTDCRIGFKKYGELP [H34G]	-0.193 ± 0.033
LKGYACRHCFTTTSKDWHHGGRENILLCTDCRIWFKKYGELP [H34W]	-0.001 ± 0.037
